# B1: Prolactin receptor (Homo sapiens), P16471 (parent)
# chain: MKENVASATVFTLLLFLNTCLLNGQLPPGKPEIFKCRSPNKETFTCWWRPGTDGGLPTNYSLTYHREGETLMHECPDYITGGPNSCHFGKQYTSMWRTYIMMVNATNQMGSSFSDELYVDVTYIVQPDPPLELAVEVKQPEDRKPYLWIKWSPPTLIDLKTGWFTLLYEIRLKPEKAAEWEIHFAGQQTEFKILSLHPGQKYLVQVRCKPDHGYWSAWSPATFIQIPSDFTMNDTTVWISVAVLSAVICLIIVWAVALKGYSMVTCIFPPVPGPKIKGFDAHLLEKGKSEELLSALGCQDFPPTSDYEDLLVEYLEVDDSEDQHLMSVHSKEHPSQGMKPTYLDPDTDSGRGSCDSPSLLSEKCEEPQANPSTFYDPEVIEKPENPETTHTWDPQCISMEGKIPYFHAGGSKCSTWPLPQPSQHNPRSSYHNITDVCELAVGPAGAPATLLNEAGKDALKSSQTIKSREEGKATQQREVESFHSETDQDTPWLLPQEKTPFGSAKPLDYVEIHKVNKDGALSLLPKQRENSGKPKKPGTPENNKEYAKVSGVMDNNILVLVPDPHAKNVACFEESAKEAPPSLEQNQAEKALANFTATSSKCRLQLGGLDYLDPACFTHSFH
# Variants of: B1
# Conditions: with 1433z_human YWHAZ
row,effect of a mutation on the interaction,Variant
1,decreasing interaction strength,C413A;S414A;T415A
2,decreasing interaction strength,T415A

# Source: IntAct's records for PubMed 12819209
